The results in this text go back to publication PMC10333351 (Nature Communications, 2023).

Data set [1] deals with the molecule itself. As to the kind of experiment: cryo-EM structure; KpFtsZ-Mb double-helical tube: 4.0 mg/ml KpFtsZ, 20 mM HEPES pH 7.5, 25 mM NaCl, 100 mM KCl, 5 mM MgCl2, 1 mM GMPPNP, 0.12 mM PC190723, 1.2x molar excess of Mb.
Data set [2] deals with the molecule itself. As to the kind of experiment: negative staining EM; 1.0 mg/ml purified KpFtsZ alone or with 1 mM GTP, GMPCPP, GDP or GMPPNP; uranyl acetate stain.
Data set [3] deals with the molecule itself. The data set is described as follows: crystal structure; FtsZtr mixed with 1.2x molar excess of Mb and PC190723; hanging drop, 293 K, 0.2 M sodium formate, 0.1 M Bis-Tris propane pH 6.5, 20% PEG3350; space groups P212121 and P21.
Data set [4] concerns the target T1, FtsZ from Escherichia coli, full length, purified (tag state not stated) (Escherichia coli, UniProt P0A9A6 1-383).
T1 chain: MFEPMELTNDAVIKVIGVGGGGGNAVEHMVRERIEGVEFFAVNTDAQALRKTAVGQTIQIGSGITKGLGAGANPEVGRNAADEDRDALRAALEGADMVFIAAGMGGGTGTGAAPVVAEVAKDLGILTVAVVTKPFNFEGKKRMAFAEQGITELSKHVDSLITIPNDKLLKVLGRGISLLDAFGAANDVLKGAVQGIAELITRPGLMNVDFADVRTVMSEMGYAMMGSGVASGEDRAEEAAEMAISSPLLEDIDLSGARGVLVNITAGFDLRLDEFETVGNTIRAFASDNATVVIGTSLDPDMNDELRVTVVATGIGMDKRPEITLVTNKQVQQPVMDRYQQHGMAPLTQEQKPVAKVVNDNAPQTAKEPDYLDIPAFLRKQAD
The data set is described as follows: SPR. Background: Surface plasmon resonance follows binding to a sensor surface in real time, without labels.

Data set [5] deals with T2, FtsZ from Klebsiella pneumoniae, full length, purified (tag state not stated) (Klebsiella pneumoniae, UniProt W9BCK7 1-383).
T2 chain: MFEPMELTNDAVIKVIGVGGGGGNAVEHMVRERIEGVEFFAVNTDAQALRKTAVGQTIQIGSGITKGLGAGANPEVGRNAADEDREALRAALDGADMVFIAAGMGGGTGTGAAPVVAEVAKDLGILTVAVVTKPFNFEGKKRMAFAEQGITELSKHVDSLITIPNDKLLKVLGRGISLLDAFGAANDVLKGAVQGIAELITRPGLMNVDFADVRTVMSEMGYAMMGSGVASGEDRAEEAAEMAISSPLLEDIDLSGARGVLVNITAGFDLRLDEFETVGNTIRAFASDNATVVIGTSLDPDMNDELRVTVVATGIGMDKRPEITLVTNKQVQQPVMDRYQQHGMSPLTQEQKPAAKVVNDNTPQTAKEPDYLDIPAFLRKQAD
The data set is described as follows: SPR.

B1: FtsZ from Klebsiella pneumoniae, full length, tag removed (natural protein, UniProt W9BCK7 1-383, looked up)
chain: MFEPMELTNDAVIKVIGVGGGGGNAVEHMVRERIEGVEFFAVNTDAQALRKTAVGQTIQIGSGITKGLGAGANPEVGRNAADEDREALRAALDGADMVFIAAGMGGGTGTGAAPVVAEVAKDLGILTVAVVTKPFNFEGKKRMAFAEQGITELSKHVDSLITIPNDKLLKVLGRGISLLDAFGAANDVLKGAVQGIAELITRPGLMNVDFADVRTVMSEMGYAMMGSGVASGEDRAEEAAEMAISSPLLEDIDLSGARGVLVNITAGFDLRLDEFETVGNTIRAFASDNATVVIGTSLDPDMNDELRVTVVATGIGMDKRPEITLVTNKQVQQPVMDRYQQHGMSPLTQEQKPAAKVVNDNTPQTAKEPDYLDIPAFLRKQAD
notes: Used for cryoEM; Polymer (protofilament or double-helical tube); also called KpFtsZ; source: E. coli, purified (HisTrap, HiTrap Q, Superdex200), tag removed with TEV protease; not shown: His6, N-terminal, cleaved
Take B1: the binding result in data set [1] is on record as “binds”.

B2: FtsZ from Klebsiella pneumoniae, full length, purified (tag state not stated) (natural protein, UniProt W9BCK7 1-383, looked up)
chain: MFEPMELTNDAVIKVIGVGGGGGNAVEHMVRERIEGVEFFAVNTDAQALRKTAVGQTIQIGSGITKGLGAGANPEVGRNAADEDREALRAALDGADMVFIAAGMGGGTGTGAAPVVAEVAKDLGILTVAVVTKPFNFEGKKRMAFAEQGITELSKHVDSLITIPNDKLLKVLGRGISLLDAFGAANDVLKGAVQGIAELITRPGLMNVDFADVRTVMSEMGYAMMGSGVASGEDRAEEAAEMAISSPLLEDIDLSGARGVLVNITAGFDLRLDEFETVGNTIRAFASDNATVVIGTSLDPDMNDELRVTVVATGIGMDKRPEITLVTNKQVQQPVMDRYQQHGMSPLTQEQKPAAKVVNDNTPQTAKEPDYLDIPAFLRKQAD
notes: Used for SPR (analyte) and negative staining EM; also called KpFtsZ; source: E. coli, purified (HisTrap, HiTrap Q, Superdex200)
On to B2, for which the binding result in data set [2] is listed as “binds”.

B3: truncated KpFtsZ (residues 11-316), tag removed (domain or fragment, Klebsiella pneumoniae, UniProt W9BCK7 11-316, looked up)
chain: AVIKVIGVGGGGGNAVEHMVRERIEGVEFFAVNTDAQALRKTAVGQTIQIGSGITKGLGAGANPEVGRNAADEDREALRAALDGADMVFIAAGMGGGTGTGAAPVVAEVAKDLGILTVAVVTKPFNFEGKKRMAFAEQGITELSKHVDSLITIPNDKLLKVLGRGISLLDAFGAANDVLKGAVQGIAELITRPGLMNVDFADVRTVMSEMGYAMMGSGVASGEDRAEEAAEMAISSPLLEDIDLSGARGVLVNITAGFDLRLDEFETVGNTIRAFASDNATVVIGTSLDPDMNDELRVTVVATGIG
notes: FtsZ, Klebsiella pneumoniae, residues 11-316; also called KpFtsZtr; source: E. coli, purified (HisTrap, HiTrap Q, Superdex200), tag removed with TEV protease; not shown: His6, N-terminal, cleaved
As for B3, the binding result in data set [3] was “binds”.

B4: truncated EcFtsZ (residues 11-316), tag removed (domain or fragment, Escherichia coli, UniProt P0A9A6 11-316, looked up)
chain: AVIKVIGVGGGGGNAVEHMVRERIEGVEFFAVNTDAQALRKTAVGQTIQIGSGITKGLGAGANPEVGRNAADEDRDALRAALEGADMVFIAAGMGGGTGTGAAPVVAEVAKDLGILTVAVVTKPFNFEGKKRMAFAEQGITELSKHVDSLITIPNDKLLKVLGRGISLLDAFGAANDVLKGAVQGIAELITRPGLMNVDFADVRTVMSEMGYAMMGSGVASGEDRAEEAAEMAISSPLLEDIDLSGARGVLVNITAGFDLRLDEFETVGNTIRAFASDNATVVIGTSLDPDMNDELRVTVVATGIG
notes: FtsZ, Escherichia coli, residues 11-316; also called EcFtsZtr; source: E. coli, purified (HisTrap, HiTrap Q, Superdex200), tag removed with TEV protease; not shown: His6, N-terminal, cleaved
On to B4, for which the binding result in data set [3] is reported as “binds”.

B5: Mb(Ec/KpFtsZ_S1), His10-tagged (designed binder)
chain: MKHHHHHHHHHHSSDYKDDDDKGENLYFQGSVSSVPTKLEVVAATPTSLLISWDAPAVTVSYYRITYGETGGNSPVQEFTVPGSKSTATISGLSPGVDYTITVYARSAYHRRSPISINYRT
One may read the koff as the rate constant with which the complex falls apart. Higher therefore signals fast dissociation. Take B5: the dissociation rate constant (koff) amounted to 0.39 s⁻¹ in data set [4] and 0.67 s⁻¹ in data set [5].
